Measured values taken from PMC11334715 (Science immunology, 2024).
Like-named read-outs stand apart in the source and are kept apart here.

How the values were obtained:
[1] = biological target: T1, murine LRIG1.ECD.His recombinant protein (mouse, UniProt P70193 35-796); test: SPR
T1 sequence (looked up): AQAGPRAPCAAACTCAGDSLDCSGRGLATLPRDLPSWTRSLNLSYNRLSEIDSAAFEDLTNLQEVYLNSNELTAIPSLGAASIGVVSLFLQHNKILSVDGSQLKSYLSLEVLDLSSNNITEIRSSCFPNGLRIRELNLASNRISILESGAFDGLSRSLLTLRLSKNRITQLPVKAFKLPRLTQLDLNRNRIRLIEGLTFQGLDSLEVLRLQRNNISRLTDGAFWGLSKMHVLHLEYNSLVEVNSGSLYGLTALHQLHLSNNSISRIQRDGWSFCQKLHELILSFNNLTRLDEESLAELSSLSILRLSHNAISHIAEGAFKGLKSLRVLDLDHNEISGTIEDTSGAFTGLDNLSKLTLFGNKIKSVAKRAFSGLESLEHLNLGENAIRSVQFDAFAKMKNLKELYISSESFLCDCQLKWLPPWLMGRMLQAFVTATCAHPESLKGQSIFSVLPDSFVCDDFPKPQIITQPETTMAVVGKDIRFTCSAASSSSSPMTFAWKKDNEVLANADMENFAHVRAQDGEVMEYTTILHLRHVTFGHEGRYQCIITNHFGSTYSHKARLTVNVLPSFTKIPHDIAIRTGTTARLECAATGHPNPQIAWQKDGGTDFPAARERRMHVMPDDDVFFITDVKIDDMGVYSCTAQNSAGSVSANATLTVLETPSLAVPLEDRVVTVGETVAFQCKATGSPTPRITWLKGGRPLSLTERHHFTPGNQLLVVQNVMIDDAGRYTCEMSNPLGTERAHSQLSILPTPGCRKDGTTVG

[2] = biological target: T1, murine LRIG1.ECD.His recombinant protein; test: SPR; remark: listed apart in the source

B1: murine VISTA.Fc recombinant protein (VISTA.ECD) (Fc fusion, UniProt Q9D659 33-191, looked up)
chain: FKVTTPYSLYVCPEGQNATLTCRILGPVSKGHDVTIYKTWYLSSRGEVQMCKEHRPIRNFTLQHLQHHGSHLKANASHDQPQKHGLELASDHHGNFSITLRNVTPRDSGLYCCLVIELKNHHPEQRFYGSMELQVQAGKGSGSTCMASNEQDSDSITAA
Kd [1]: 3.44 nM
Kd [2]: 1.2 nM
